Fewer inactive variants are shown than the library holds.

Sequences and labels used below:
B1: TPR 5TU (parent)
chain: GGAUCUUCUCGAUCUAACAAAAAAGACAAAUCUGCCACAAAGCUUGAGAGCAUCUUCGGAUGCAGAGGCGGCAGCCUUCGGUGGCGCGAUAGCGCCAACGUUCUCAACUAUGACACGCAAAACGCGUGCUCCGUUGAAUGGAGUUUAUCAUG

The variants in this series derive from B1. Description: polymerase ribozyme fitness, log enrichment relative to wild type (log ratio); higher = more active; in vitro selection for triplet polymerase activity. The method in brief:
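Mutant libraries were PCR-built and transcribed for each subunit of a heterodimeric triplet polymerase ribozyme and selected for one round in triplicate at −7 °C, frozen, before gel excision of extended constructs and streptavidin-bead capture. Input and output libraries were Illumina-sequenced, keeping genotypes with ≥10 input reads and ≥1 read per output. Fitness is a logarithmic ratio of genotype to wild-type enrichment, in base 2, using inverse-variance-weighted replicate averages.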
With A19U A26G A122G, the “polymerase ribozyme fitness (log ratio)” value was no more than -4.2.
For the variant A20C C32G G59C C85U C95G A97G G140A U151C, the “polymerase ribozyme fitness (log ratio)” value was no more than -4.2.
With A20G A47G the figure was -0.368; with A19U C85U, -0.763.
On to A20C A120G, for which the “polymerase ribozyme fitness (log ratio)” value is -0.986.
For A19G C96U C123U, the “polymerase ribozyme fitness (log ratio)” value was -0.681.
With A20U C85G the figure was -3.35; with A20G A21U A23U C87A A91C C95A C118G G133U U135A, no more than -4.2.
With A20G A52C the figure was -1.28; with A19U U53C C87G, no more than -4.2; with A20U C35U C95A A97G C99A C105U A138G, no more than -4.2.
With A20G A21C G94A U146G the figure was -0.812.
Take A20C C54U U78A: the “polymerase ribozyme fitness (log ratio)” value is no more than -4.2.
For the variant A19G G50C C75G C85G C103A U135C, the “polymerase ribozyme fitness (log ratio)” value was no more than -4.2.
Consider A19U G42U A113G A121U G124C U148A, for which the “polymerase ribozyme fitness (log ratio)” value is no more than -4.2.
With A21G C27G U33C G62U G81U C96U C105A A113U A122U, the “polymerase ribozyme fitness (log ratio)” value is no more than -4.2.
Regarding A20C C75A C96U C118G G141A, the “polymerase ribozyme fitness (log ratio)” value was no more than -4.2.
With A20C A52U G68C G84A U134C the figure was no more than -4.2; with A19U C114G, -3.52; with A19G C54G G70A A73G G92A A106G C116G A137G, no more than -4.2.
For A20G G136A, the “polymerase ribozyme fitness (log ratio)” value turned out to be 0.27.
Take A20U A21G C51U G133C: the “polymerase ribozyme fitness (log ratio)” value is no more than -4.2.
In the case of A19U C87U, the “polymerase ribozyme fitness (log ratio)” value is -0.845.
For A20G A22C, the “polymerase ribozyme fitness (log ratio)” value was -0.665.
With A19U C57A A60C C93A the figure was no more than -4.2.
Consider A19G U78G C87G A98U U101G G126A, for which the “polymerase ribozyme fitness (log ratio)” value was no more than -4.2.
With A21C C32G C43U C57A G71U C85A G88C A91C A147U the figure was no more than -4.2; with A20C G50U G83U, -0.904; with A20U A26U A29U G46A A49C A106U, no more than -4.2.
The value for A19U A24U A30U U55A C93G C103G A106C C132G U146C was no more than -4.2; that for A19U G25A U61A was no more than -4.2; that for A20U G81A A89G C93U C129U was -3.56.
On to A20G G48A A119C A121U G136U, for which the “polymerase ribozyme fitness (log ratio)” value was -3.51.
The value for A19U A39G C85U U134G was no more than -4.2; that for A20C C57U G59C G62C G124A was -0.9.
For A19G A122C G136C A142C, the “polymerase ribozyme fitness (log ratio)” value was -3.74.
In the case of A21C A49C A52C U53G G84U C95U G141A, the “polymerase ribozyme fitness (log ratio)” value was no more than -4.2.
The value for A20U C32A C99A A115G A120U was -4.05.
For A20C A52G C79A G133C U146G, the “polymerase ribozyme fitness (log ratio)” value was no more than -4.2.
With A20U C87U, the “polymerase ribozyme fitness (log ratio)” value was -2.07.
On to A20U C87G A91U, for which the “polymerase ribozyme fitness (log ratio)” value is no more than -4.2.
For the variant A20G U45C U56G C57U C75A C87G G136C, the “polymerase ribozyme fitness (log ratio)” value is no more than -4.2.
Turning to A19U A41C A73U A91C C93U C129G G140U C149U, the “polymerase ribozyme fitness (log ratio)” value is no more than -4.2.
Regarding A20G U53A, the “polymerase ribozyme fitness (log ratio)” value is -1.01.
With A20C A52C C79G the figure was no more than -4.2; with A20C A41U G59A A60U C69G G86A C103G, no more than -4.2.
In the case of A21C U56G G59A C72U A122U, the “polymerase ribozyme fitness (log ratio)” value was -0.846.
The value for A21C C75G C96G C131G was -4.13.
With A20G A41U C51A U56A C76U G86U G88U A91U C123A U144A C149A the figure was no more than -4.2; with A20G G83A C129G, -3.83; with A19U A52G G94C, -1.72.
With A20C C85U, the “polymerase ribozyme fitness (log ratio)” value was -1.04.
With A20G C93U the figure was -2.59; with A20C G84U, -3.03; with A21C A22U A89U G92C G94U G141A, no more than -4.2.
With A20U G50C G58U C79G G84U U90G A107G C108G the figure was no more than -4.2; with A19U C54G C79A U82C G84A A89C G92C U144C, no more than -4.2; with A20G C38G C69U G86U A91U C99G A137G, no more than -4.2.
For the variant A20C G50C U55G C105U, the “polymerase ribozyme fitness (log ratio)” value was no more than -4.2.
A21G A41C U56G G65A G141U: the “polymerase ribozyme fitness (log ratio)” value is -3.42.
As to A20C C36A C51U U55G C69G A73U G81A C96U G141U, the “polymerase ribozyme fitness (log ratio)” value is no more than -4.2.
With A21C C72G G124C the figure was no more than -4.2; with A21G C116G U144G, 1.13.
The value for A21C G59A A113G was -1.92; that for A19U G94C U145G was -0.324; that for A19G C57A G65A was -2.01.
With A19U G68C C93G C131G the figure was no more than -4.2; with A19U A23G G84A U101G A115C, -3.62; with A20U G48C C57G G128A, no more than -4.2.
On to A20C A39U G42A A91U G133U, for which the “polymerase ribozyme fitness (log ratio)” value was no more than -4.2.
Take A19G G86A: the “polymerase ribozyme fitness (log ratio)” value was -1.36.
With A21C A26U G140C U146A the figure was no more than -4.2; with A21G C27G C114U U135G U146A U148G, no more than -4.2.
Consider A20G U77A C85U C105U U135A A138G, for which the “polymerase ribozyme fitness (log ratio)” value was no more than -4.2.
On to A19U A26C G46U C93A C95G C108A U151G, for which the “polymerase ribozyme fitness (log ratio)” value is no more than -4.2.
The value for A20U A150G was -1.81; that for A20U U33G G42U C63G G71A A113G was no more than -4.2; that for A21C C96U A122C was -0.0635.
On to A20C A41U G68C G83A G100U A115G C116U C123G, for which the “polymerase ribozyme fitness (log ratio)” value is no more than -4.2.
The value for A20U C96G was -0.585; that for A20U U33C G71C G92U C96G A119U C125A was no more than -4.2.
The value for A20C A41C U55C C93G C99U U102G was no more than -4.2; that for A20C A115U was -2.36.
